Results from patent publication US20130310305A1.

What was measured:
[1] = molecular target: plasminogen (purified; Molecular Innovations in the plasmin activity reactions); experiment: cell-based or functional assay
[2] = molecular target: mouse plasminogen (endogenous, in descending aorta protein of LDLR-/- ApoB48-deficient mice) (mouse) (UniProt P20918); experiment: co-immunoprecipitation from pooled mouse descending aorta protein, densitometry of the western blot
Chain of UniProt P20918 (P20918 20-812 limits assumed): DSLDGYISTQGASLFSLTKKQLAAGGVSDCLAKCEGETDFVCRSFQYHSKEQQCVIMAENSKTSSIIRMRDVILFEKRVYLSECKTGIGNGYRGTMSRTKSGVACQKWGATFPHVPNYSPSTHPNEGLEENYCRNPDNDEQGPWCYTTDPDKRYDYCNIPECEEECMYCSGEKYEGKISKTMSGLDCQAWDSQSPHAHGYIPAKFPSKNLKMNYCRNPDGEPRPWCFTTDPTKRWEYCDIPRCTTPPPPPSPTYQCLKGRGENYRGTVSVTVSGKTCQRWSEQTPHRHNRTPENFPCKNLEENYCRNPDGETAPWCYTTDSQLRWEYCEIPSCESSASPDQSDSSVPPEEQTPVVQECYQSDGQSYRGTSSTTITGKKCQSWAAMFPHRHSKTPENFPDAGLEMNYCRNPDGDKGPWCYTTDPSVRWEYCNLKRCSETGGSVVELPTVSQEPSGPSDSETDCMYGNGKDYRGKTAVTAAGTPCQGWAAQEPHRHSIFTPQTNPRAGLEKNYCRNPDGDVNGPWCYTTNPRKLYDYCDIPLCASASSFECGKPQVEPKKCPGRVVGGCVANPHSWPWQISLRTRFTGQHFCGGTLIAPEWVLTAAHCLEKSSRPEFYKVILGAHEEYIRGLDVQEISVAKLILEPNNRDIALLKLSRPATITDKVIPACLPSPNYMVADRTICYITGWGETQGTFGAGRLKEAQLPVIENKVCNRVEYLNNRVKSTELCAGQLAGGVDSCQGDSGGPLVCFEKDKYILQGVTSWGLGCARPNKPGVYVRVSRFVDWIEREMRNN

| plasmin activity (chromozym assay); 50 nM PAI-1 pre-bound to plasminogen 1 h at 37 C before tPA was added (late) [1] [U/ml] | fold more plasminogen complexed with PAI-1 (rPAI-123-treated against saline-treated mice) [2] [fold] | Substance |
| --- | --- | --- |
| 0.00138 |  | glycosylated human PAI-1 (Molecular Innovations) (from UniProt P05121 24-402) |
|  | 1.6 | mouse PAI-1 (endogenous, in descending aorta protein of LDLR-/- ApoB48-deficient mice) (from UniProt P22777 23-402) |
